Test system: T1, OhsR-SSM (S-mycothiolated OhsR) (Corynebacterium glutamicum), ORF:a3d30e29
T1 sequence: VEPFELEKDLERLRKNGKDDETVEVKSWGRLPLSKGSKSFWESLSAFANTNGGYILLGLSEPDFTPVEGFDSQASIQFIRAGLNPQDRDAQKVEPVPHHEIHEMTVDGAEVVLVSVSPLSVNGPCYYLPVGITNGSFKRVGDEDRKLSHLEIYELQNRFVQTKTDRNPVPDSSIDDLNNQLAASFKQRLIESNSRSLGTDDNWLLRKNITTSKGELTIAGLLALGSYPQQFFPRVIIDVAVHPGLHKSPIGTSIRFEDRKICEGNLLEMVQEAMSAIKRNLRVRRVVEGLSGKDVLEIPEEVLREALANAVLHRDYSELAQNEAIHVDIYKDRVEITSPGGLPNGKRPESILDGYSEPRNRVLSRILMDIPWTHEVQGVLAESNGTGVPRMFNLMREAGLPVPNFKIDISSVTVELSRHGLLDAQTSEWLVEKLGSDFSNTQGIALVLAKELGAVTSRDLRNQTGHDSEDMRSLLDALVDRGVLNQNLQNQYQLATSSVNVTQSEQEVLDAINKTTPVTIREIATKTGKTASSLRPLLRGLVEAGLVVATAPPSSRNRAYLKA
Assay: EMSA
Details: EMSA: 20 mM Tris-HCl pH 7.4, 4 mM MgCl2, 100 mM NaCl, 10% glycerol, room temperature 30 min; 20 ng DNA, 0-4 ug OhsR; 6% native PAGE, 0.5x TBE, SYBR Green

CACCTTGTTGGTGGGCCGGGATTTTTGTTGTTTAGATTTTTGAAAGCACACTTTTGTCCCTTAACTAGTGCGTGTGTACATTCGACACCAAGATTTGGGCAATATGGTGCCCAAAATCAGGAAATCTTGCTGTCTAATGCACAACGGAAAACTGCTCACGGACGAACTAGTTGTAGCGAGCGTATTCTTTGTGTTCTCTC (double strand) [Pohr (ohr promoter, 200 bp)]
binding: binds
